Among the data in paper PMC4113996, “Prediction and characterization of enzymatic activities guided by sequence similarity and genome neighborhood networks” (eLife, 2014) are Km and kcat values, retold here.

What all share (assay): purified protein
Substrate in data set [1]: O=C(O)C1=NCCC1
The class given is biochemical, Bacillus cereus. As to conditions: 0.16 mM NADPH, 50 mM Tris-HCl pH 7.6, 25°C.

Substrate in data set [2]: O=C(O)C1=NCCC1
The class given is biochemical, Agrobacterium fabrum. To be noted: 0.16 mM NADPH, 50 mM Tris-HCl pH 7.6, 25°C.

Substrate in data set [3]: O=C(O)[C@@H]1C[C@@H](O)CN1
To be noted: 4HypE reaction (start from t4Hyp as in Figure 1), 50 mM Na-phosphate pH 8.0, 1 mM DTT, 25°C.

Substrate in data set [4]: O=C(O)C1=NCCC1
It is filed as biochemical, Pseudomonas aeruginosa. As to conditions: 0.16 mM NADPH, 50 mM Tris-HCl pH 7.6, 25°C.

B1: BC_0906 (Q81HB0) (Bacillus cereus ATCC 14579) (protein)
chain: MLVISANEQRNLVNMNEVIEYAALALKEFSAERTITPIRGSLPFANEQNTALIMPSVAEGLEALGVKIVTVVPQNKQIGKKTINGIVMLSDFQAGEPLALLEGSYLTMIRTGALSGVATKYLARHNAKTLCIIGTGEQAKGIAEAIFAVRDIEKVILYNRTEEKAYAFAQYIQEKFGKPAYVYKDPNEAVREADIIVTTTNATTPVFSEILQKGVHVNAVGSFRPSMQELPSHAIAKANKVVVESKEAALDETGDLQVPIKEGLFKANAIHAELGQIISGEKAGRENDEEITIFKSVGLAVVDIIVAKYLYERALEQGVGNKIEF
For B1, in “purified protein [1]”, the Km worked out at 470 ± 100 µM and the kcat is 15 ± 1 s⁻¹.

B2: Atu4676 (Q7CVK1) (Agrobacterium fabrum str. C58) (protein)
chain: MSDTTTLTIEALFQRVESIFLRAGLNAVQSGALARVITAGERDACKSHGIYRIEGALRTVKAAKVKPDAIPEVAEDDGTAIVKVNAMGGFANPAFELGLPALAERAKRLGLAALVINDCTHFSALWPEVEGLTSNGLAGLVMCPSYSTVAPTGGTKPLLGTNPFAFGWPRKDTSPYVFDFATSVAARGEIELHRRARKSLPEGWAVDADGNPTTDPEAALAGAMLPFGGHKGSAIGTMIELLAGIMIGDLTSPEVLDYLGTTTLAPFHGELIVAFSPEAFAKGRPGDPFQRAEVLFEAIIGQGARLPSGRRFAARAKSESEGITLTAAEMAGLDRLLEKGLDAVS
For the protein B2, in the data set “purified protein [2]”, the Km came to 330 ± 40 µM and the kcat was 32 ± 1 s⁻¹.

B3: Avi_0518 (B9JQV3) (Allorhizobium ampelinum S4) (protein)
chain: MRWKRMMQLLDVHCEGEIGKVAIGGVPKIPGDTVADQLHWLNTDPKGRELRHFLVLEPRGAPIGSVNLLLPAKDSRADAAFIILQPDQAHASSGSNSICVTTALLESGMIEMQEPETVVMLETAAGLVKAVAQCRDGHCDSVTLTMVPSFVHELDAQIATESWGEIRFDLAYGGVFYALVDVRQLGLTIEPGNARRLVEAGMLLKGEINQRIQVVHPDIPAISGVAYVMFRDEDPDGAVRTCTTMWPGRVDRSPCGTGNSANLATLHARGRVKPGDSFLSRSIIGSQFTVGLQGLTTVAGRSAVIPTITGRGFTYGIHQVALDAFDPLGGGFVLTDVWGAAAETIKI
In the case of B3, the Km in the data set “purified protein [3]” is 5600 ± 500 µM.

B4: PA1252 (Q9I492) (Pseudomonas aeruginosa PAO1) (protein)
chain: MIRMTLDEVRELAVRILRRHAFSEAHVQAVADTLVAGERDECASHGIWRLLGCIATLKAGKVSADAEPELHDIAPGLLRVDAHGGFSQCAFRLGLPHLLEKARSQGIAAMAVNRCVHFSALWVEVEALTEAGLVALATTPSHAWVAPAGGRKPIFGTNPIAFGWPRPDGPPFVFDFATSAVARGEIQLHERAGKPIPLGWGVDEQGEPTTDASAALRGAMLTFGGHKGSALAAMVELLAGPLIGDLTSAESLAYDEGSRSSPYGGELLIAIDPRRMLGASAEEHLARAETLFEGIVEQGARLPSQRRFEARERSARDGVTIPEALHRELLALLE
As for B4, in “purified protein [4]”, the Km is 410 ± 60 µM and the kcat came to 1.6 ± 0.05 s⁻¹.
